From paper PMC5389548 come the findings set out here.

For this data set, the target named is thrombin (human, UniProt P00734;P00734 328-363;364-622). In words: microarray sandwich fluorescence.
In general, Kd refers to the free concentration of one partner at which half of the binding sites on the other are occupied at equilibrium, for simple one-to-one binding. A higher Kd goes with weaker binding. The molecule GGTTGGTGTGGTTGG (structured_DNA, 2'F-araT, positions lost in text) [sequence 15] showed a dissociation constant Kd of 85 ± 21 nM.

On to GGTTGGTGTGGTTGG (structured_DNA, 2'F-araT, positions lost in text) [sequence 16], for which binding was put at a Kd of 117 ± 44 nM. GGTTGGTGTGGTTGG (structured_DNA, eight 2'F-ANA, positions lost in text) [sequence 6] gave a dissociation constant (Kd) of 29 ± 2.7 nM.

GGTTGGTGTGGTTGG (structured_DNA) [TBA1 control] gave a Kd of 93 ± 23 nM. The figure for GGTTGGTGTGGTTGG (structured_DNA, ten 2'F-ANA, positions lost in text) [sequence 11] is 53 ± 16 nM. The figure for GGTTGGTGTGGTTGG (structured_DNA, 2'F-ANA, positions lost in text) [sequence 4] is 41 ± 3.7 nM. The figure for GGTTGGTGTGGTTGG (structured_DNA, 2'F-ANA at T3, G8, T12; full pattern lost in text) [sequence 1] is 28 ± 1.6 nM; for GGTTGGTGTGGTTGG (structured_DNA, 2'F-ANA at T3, G8, T12; full pattern lost in text) [sequence 2] it is 28 ± 1.2 nM; for GGTTGGTGTGGTTGG (structured_DNA, 2'F-ANA, positions lost in text) [sequence 3] it is 39 ± 10 nM. The molecule GGTTGGTGTGGTTGG (structured_DNA, ten 2'F-ANA, positions lost in text) [sequence 10] gave a dissociation constant Kd of 45 ± 14 nM.
